From the supplement of paper PMC9170038

Test system: MS2 coat protein
Assay: apparent KD of MS2 coat protein; designed switch direction (-1 OFF switch, 1 ON switch): -1; higher = weaker reporter binding
In short: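 Stalled E. coli RNA polymerase transcribed designed RNA switches on Illumina chips, which were then titrated with SNAP-549-labelled MS2 coat protein, doubling from 0.7 or 1.5 nM to 3 µM. Steps lasted from 0.8–1.5 h at the lowest concentration to 10–20 min at the highest. The apparent KD is each design's median over clusters of curve-fitted normalised fluorescence.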

[1] = Eterna round: R95, input ligand: microRNA oligo, concentration not stated
[2] = input ligand: microRNA oligo, concentration not stated

Row | Sequence | apparent KD of MS2 coat protein (input ligand: FMN 200 uM) | apparent KD of MS2 coat protein (input ligand: none) | apparent KD of MS2 coat protein [1] | also measured
1 | GUGGAGGUAGGAUAUCCGCUUCCGGACAUGAGGAUCACCCAUGUUGUUCGGAUUGGACAGGGAGAAGGGCCCACAA [Eternabot (Original) Solution 37] (Eterna round: R97, puzzle: Exclusion 5) | 44.9 nM | 39.3 nM |  | 
2 | CUGAGCUGAGGAUAUACAUGAGGAUCACCCAUGUGAAGUAGCUUGCGUACAGGCAGAUGUAGAAGGCAGUUCGG [Mod of JL 1 - Jieux - Exclusion 3] (Eterna round: R97, puzzle: Exclusion 3) | 250 nM | 42.1 nM |  | 
3 | GCGGGCUUUUUGCUCGUUUACAUGAGGAUCACCCAUGUGUCUUCGCGCCCGGGCCCGGGCGGGCCCGGGCCCGGGCG [-52.3, -76.4, A 8%] (Eterna round: R97, puzzle: Sensor, turn-off variant 1) | 36.1 nM | 41.5 nM |  | 
4 | CCUCCACAGGAGGAUAUCAUCAAACUAUUGUGAUGAGAAGGCCUGACAUGAGGAUCACCCAUGUUAACGUGAUG [Mod of Brourd 8 - Jieux - Exclusion 6] (Eterna round: R97, puzzle: Exclusion 6) | 209 nM | 58.1 nM |  | 
5 | UCGCUGCGAGGAUAUACGUGCGCGCGCUCGCGUGCGCGCGUACAUGAGGAUCACCCAUGUAGAAGGCGCGCUGC [Apr-15 SS2-4] (puzzle: Exclusion 2) |  |  | 13.4 nM | 
6 | CUUAAAAGGAAGGAUAUGCUAGACGAAAGUCUAGCAGAAGGUCCUACAUGAGGAUCACCCAUGUGUCCUGUAAG [Mat - Exclusion 6 - Eli Mod - D41] (Eterna round: R97, puzzle: Exclusion 6) | 95.6 nM | 53.9 nM |  | 
7 | ACUUAUUGAGGAUAUACAGAUUAUUACAUGAGGAUCACCCAUGUUCUUCAAUGUAUAUAUGUAGAAGGCAGAAGUA [Mat - Exclusion 5 - JL Mod - D14] (Eterna round: R97, puzzle: Exclusion 5) | 317 nM | 88.9 nM |  | 
8 | ACAAAGGAUACAGGAUAUCGCGUACAAGUGCAGCGAGAAGGGUAUUCUAUGCGCUAUCCGACAUGAGGAUCACCCAUGUGGUCC [Eternabot solution 47] (Eterna round: R96, puzzle: Exclusion NG 1) | 417 nM | 366 nM |  | apparent KD of MS2 coat protein [2]: 851 nM
9 | AAUAAGCUAGGAUAUACAUGAGGAUCACCCAUGUAUGACGAUACAGAAUCUGGCCCGAGUAGAAGGAGCAAACU [EX3 B.7] (Eterna round: R97, puzzle: Exclusion 3) | 23.2 nM | 17.4 nM |  | 
10 | CCGAGGUGGCGGUCCUAUGACAUGAGGAUCACCCAUGUACCUCGCCACAAGCUCUUUGCUCAUCUUAUAGUUCUCGG [Onlaor] (puzzle: Sensor v3, turn-off variant 1) |  |  | 124 nM | apparent KD of MS2 coat protein (Eterna round: R95, input ligand: FMN 200 uM): 18.6 nM; apparent KD of MS2 coat protein (Eterna round: R95, input ligand: none): 17.9 nM
11 | AGAAAGUCAGGAUAUCGAAGGUAGUGGAGAGGAGUGUGGUACGAGAAGGGACAUGAGGAUCACCCAUGUAGGAG [JR_Exclusion4)Sub007] (puzzle: Exclusion 4) |  |  | 31.1 nM | 
12 | UAAGAAUGCAAGGAUAUGGCUAGGUAAAACAUGUCAGAAGGUGCUACAUGAGGAUCACCCAUGUGUCUCGUGCG [Eternabot (L1) Solution 2] (Eterna round: R97, puzzle: Exclusion 6) | 75.8 nM | 64.3 nM |  | 
13 | GAUUGACAUGAGGAUCACCCAUGUGAGGAUAUCGGCCGGACCUUGUUAGCUUCCAUCGUGAGAAGGCACAUAGG [Exclusion 1 V35] (puzzle: Exclusion 1) |  |  | 26.9 nM | 
14 | UAGAAUCGAGGAUAUACAUGAGGAUCACCCAUGUGUGGCCAUUUGGUGUGGUCGUCAGGUAGAAGGCGAUUACA [Exclusion 3 - Mod of Jieux's Gilly Gone Silly 23 v.5] (Eterna round: R96, puzzle: Exclusion 3) | 173 nM | 412 nM |  | apparent KD of MS2 coat protein [2]: 211 nM
15 | AAUCCACAUGAGGAUCACCCAUGUGAGGAUAUGAUACUAUGUACUUCGGUACAUAGUAUCAGAAGGCACGGAUC [Ex1-3: 53] (puzzle: Exclusion 1) |  |  | 29.9 nM | 
16 | UUUUAACAUGAGGAUCACCCAUGUGAGGAUAUCGAAAUUUAUAUUAAUAUUUAUAUUACGAGAAGGCACAUUUU [JMF 58] (puzzle: Exclusion 1) |  |  | 75.9 nM | 
17 | UUAUUGUGAGGAUAUCAGGUGUGCUAGCGUACUGGUACAUCUGAGAAGGCACAUGAGGAUCACCCAUGUUUCUU [JL-ex4-3.22 Brourd mod] (Eterna round: R96, puzzle: Exclusion 4) | 69.6 nM | 25 nM |  | apparent KD of MS2 coat protein [2]: 18.9 nM
